Experimental data: patent US20070219139A1 (POSCO, published 2007)
Where no end group is shown, it is not given here. [ ]: non-standard residue; d: D form.

T1: formyl peptide receptor (UniProt P21462 1-350, limits assumed)
T1 sequence (looked up): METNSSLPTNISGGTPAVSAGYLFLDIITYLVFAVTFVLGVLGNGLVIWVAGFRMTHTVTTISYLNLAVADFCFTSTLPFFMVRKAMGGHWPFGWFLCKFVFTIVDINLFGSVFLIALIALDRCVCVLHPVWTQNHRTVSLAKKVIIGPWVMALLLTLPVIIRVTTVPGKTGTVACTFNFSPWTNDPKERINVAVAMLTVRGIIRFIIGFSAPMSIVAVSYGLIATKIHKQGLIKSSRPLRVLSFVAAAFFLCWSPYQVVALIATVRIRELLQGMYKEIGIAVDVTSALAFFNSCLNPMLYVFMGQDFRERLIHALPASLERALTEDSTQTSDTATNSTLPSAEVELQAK

T2: formyl peptide receptor-like 1 (UniProt P25090 1-351, limits assumed)
T2 sequence (looked up): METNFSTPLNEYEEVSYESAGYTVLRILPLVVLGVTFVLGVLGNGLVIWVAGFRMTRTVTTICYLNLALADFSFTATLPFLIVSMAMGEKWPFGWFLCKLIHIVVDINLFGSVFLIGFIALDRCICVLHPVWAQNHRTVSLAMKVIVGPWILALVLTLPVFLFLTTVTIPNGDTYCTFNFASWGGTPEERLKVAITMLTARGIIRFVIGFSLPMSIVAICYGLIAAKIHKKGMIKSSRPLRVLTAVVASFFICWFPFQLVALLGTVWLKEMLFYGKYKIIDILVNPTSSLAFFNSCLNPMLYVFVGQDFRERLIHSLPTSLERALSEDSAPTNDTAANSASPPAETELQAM

B1: Trp-His-Tyr-Met-Val-D-Met-NH2 (peptide)
peptide: WHYMV[dM]-NH2
modifications: N-terminus assumed
SMILES: CSCC[C@H](NC(=O)[C@H](Cc1ccc(O)cc1)NC(=O)[C@H](Cc1c[nH]cn1)NC(=O)[C@@H](N)Cc1c[nH]c2ccccc12)C(=O)N[C@H](C(=O)N[C@H](CCSC)C(N)=O)C(C)C
B2: Trp-Lys-His-Met-Val-D-Met-NH2 (peptide)
peptide: WKHMV[dM]-NH2
modifications: N-terminus assumed
SMILES: CSCC[C@H](NC(=O)[C@H](Cc1c[nH]cn1)NC(=O)[C@H](CCCCN)NC(=O)[C@@H](N)Cc1c[nH]c2ccccc12)C(=O)N[C@H](C(=O)N[C@H](CCSC)C(N)=O)C(C)C
B3: Trp-Lys-Glu-Met-Val-D-Met-NH2 (peptide)
peptide: WKEMV[dM]-NH2
modifications: N-terminus assumed
SMILES: CSCC[C@H](NC(=O)[C@H](CCC(=O)O)NC(=O)[C@H](CCCCN)NC(=O)[C@@H](N)Cc1c[nH]c2ccccc12)C(=O)N[C@H](C(=O)N[C@H](CCSC)C(N)=O)C(C)C
B4: Trp-Asp-Tyr-Met-Val-D-Met-NH2 (peptide)
peptide: WDYMV[dM]-NH2
modifications: N-terminus assumed
SMILES: CSCC[C@H](NC(=O)[C@H](Cc1ccc(O)cc1)NC(=O)[C@H](CC(=O)O)NC(=O)[C@@H](N)Cc1c[nH]c2ccccc12)C(=O)N[C@H](C(=O)N[C@H](CCSC)C(N)=O)C(C)C
B5: Trp-Lys-Phe-Met-Val-D-Met-NH2 (peptide)
peptide: WKFMV[dM]-NH2
modifications: N-terminus assumed
SMILES: CSCC[C@H](NC(=O)[C@H](Cc1ccccc1)NC(=O)[C@H](CCCCN)NC(=O)[C@@H](N)Cc1c[nH]c2ccccc12)C(=O)N[C@H](C(=O)N[C@H](CCSC)C(N)=O)C(C)C
B6: Trp-Arg-Tyr-Met-Val-D-Met-NH2 (peptide)
peptide: WRYMV[dM]-NH2
modifications: N-terminus assumed
SMILES: CSCC[C@H](NC(=O)[C@H](Cc1ccc(O)cc1)NC(=O)[C@H](CCCNC(=N)N)NC(=O)[C@@H](N)Cc1c[nH]c2ccccc12)C(=O)N[C@H](C(=O)N[C@H](CCSC)C(N)=O)C(C)C
B7: Trp-Lys-Asp-Met-Val-D-Met-NH2 (peptide)
peptide: WKDMV[dM]-NH2
modifications: N-terminus assumed
SMILES: CSCC[C@H](NC(=O)[C@H](CC(=O)O)NC(=O)[C@H](CCCCN)NC(=O)[C@@H](N)Cc1c[nH]c2ccccc12)C(=O)N[C@H](C(=O)N[C@H](CCSC)C(N)=O)C(C)C
B8: Trp-Lys-Trp-Met-Val-D-Met-NH2 (peptide)
peptide: WKWMV[dM]-NH2
modifications: N-terminus assumed
SMILES: CSCC[C@H](NC(=O)[C@H](Cc1c[nH]c2ccccc12)NC(=O)[C@H](CCCCN)NC(=O)[C@@H](N)Cc1c[nH]c2ccccc12)C(=O)N[C@H](C(=O)N[C@H](CCSC)C(N)=O)C(C)C
B9: Trp-Glu-Tyr-Met-Val-D-Met-NH2 (peptide)
peptide: WEYMV[dM]-NH2
modifications: N-terminus assumed
SMILES: CSCC[C@H](NC(=O)[C@H](Cc1ccc(O)cc1)NC(=O)[C@H](CCC(=O)O)NC(=O)[C@@H](N)Cc1c[nH]c2ccccc12)C(=O)N[C@H](C(=O)N[C@H](CCSC)C(N)=O)C(C)C
B10: Trp-Lys-Tyr-Met-Tyr-D-Met-NH2 (peptide)
peptide: WKYMY[dM]-NH2
modifications: N-terminus assumed
SMILES: CSCC[C@H](NC(=O)[C@H](Cc1ccc(O)cc1)NC(=O)[C@H](CCCCN)NC(=O)[C@@H](N)Cc1c[nH]c2ccccc12)C(=O)N[C@@H](Cc1ccc(O)cc1)C(=O)N[C@H](CCSC)C(N)=O
B11: Trp-Lys-Gly-Met-Val-D-Met-NH2 (peptide)
peptide: WKGMV[dM]-NH2
modifications: N-terminus assumed
SMILES: CSCC[C@H](NC(=O)CNC(=O)[C@H](CCCCN)NC(=O)[C@@H](N)Cc1c[nH]c2ccccc12)C(=O)N[C@H](C(=O)N[C@H](CCSC)C(N)=O)C(C)C
B12: Trp-Lys-Tyr-Met-Gly-D-Met-NH2 (peptide)
peptide: WKYMG[dM]-NH2
modifications: N-terminus assumed
SMILES: CSCC[C@H](NC(=O)[C@H](Cc1ccc(O)cc1)NC(=O)[C@H](CCCCN)NC(=O)[C@@H](N)Cc1c[nH]c2ccccc12)C(=O)NCC(=O)N[C@H](CCSC)C(N)=O
B13: Trp-Lys-Arg-Met-Val-D-Met-NH2 (peptide)
peptide: WKRMV[dM]-NH2
modifications: N-terminus assumed
SMILES: CSCC[C@H](NC(=O)[C@H](CCCNC(=N)N)NC(=O)[C@H](CCCCN)NC(=O)[C@@H](N)Cc1c[nH]c2ccccc12)C(=O)N[C@H](C(=O)N[C@H](CCSC)C(N)=O)C(C)C
B14: Met-Val-D-Met-NH2 (peptide)
peptide: Met-Val-[dM]-NH2
modifications: N-terminus assumed
SMILES: CSCC[C@H](N)C(=O)N[C@H](C(=O)N[C@H](CCSC)C(N)=O)C(C)C

target: T1, formyl peptide receptor; experiment: cell-based or functional assay

Binder | EC50 of intracellular calcium increase in FPR-expressing RBL-2H3 cells (fura-2)
B1 | 31.7 nM
B2 | 280 nM
B3 | 1330 nM
YMV[dM]-NH2 [Tyr-Met-Val-D-Met-NH2] | 569 nM
B4 | 98.9 nM
B5 | 17.7 nM
B6 | 54.9 nM
B7 | 1330 nM
B8 | 18.8 nM
B9 | 317 nM
B10 | 665 nM

target: T1, formyl peptide receptor; experiment: cell-based or functional assay; remark: another data set of the same source

Binder | [Ca^2+]i increase in FPR-expressing RBL-2H3 cells
WKYMVE-NH2 [Trp-Lys-Tyr-Met-Val-Glu-NH2] | > 20 µM
WKYMVR-NH2 [Trp-Lys-Tyr-Met-Val-Arg-NH2] | > 20 µM
B11 | > 20 µM
WKYMVV-NH2 [Trp-Lys-Tyr-Met-Val-Val-NH2] | > 20 µM
WKYMVW-NH2 [Trp-Lys-Tyr-Met-Val-Trp-NH2] | > 20 µM
B12 | > 20 µM
WKYMVG-NH2 [Trp-Lys-Tyr-Met-Val-Gly-NH2] | > 20 µM

target: T2, formyl peptide receptor-like 1; experiment: cell-based or functional assay

Binder | EC50 of intracellular calcium increase in FPRL1-expressing RBL-2H3 cells (fura-2)
B1 | 0.72 nM
B2 | 1.94 nM
B3 | 28.3 nM
YMV[dM]-NH2 [Tyr-Met-Val-D-Met-NH2] | 17.1 nM
B4 | 14.3 nM
B5 | 0.23 nM
B13 | 2.06 nM
WKYMVE-NH2 [Trp-Lys-Tyr-Met-Val-Glu-NH2] | 503 nM
WKYMVR-NH2 [Trp-Lys-Tyr-Met-Val-Arg-NH2] | 178 nM
B11 | 21.3 nM
B6 | 0.12 nM
B7 | 8.73 nM
KYMV-NH2 [Lys-Tyr-Met-Val-NH2] | > 30000 nM
WKYMVV-NH2 [Trp-Lys-Tyr-Met-Val-Val-NH2] | 1260 nM
WKYMVW-NH2 [Trp-Lys-Tyr-Met-Val-Trp-NH2] | 194 nM
B8 | 0.16 nM
B9 | 5.23 nM
WKYMV-NH2 [Trp-Lys-Tyr-Met-Val-NH2] | 918 nM
B12 | 18.1 nM
WKYMVG-NH2 [Trp-Lys-Tyr-Met-Val-Gly-NH2] | 5950 nM
B14 | > 30000 nM
B10 | 0.29 nM
